Each block holds one binder with its values, some of them ahead of it.
How the values were obtained:
CD22 on Raji细胞 = biological target: T1, CD22 on Raji细胞 (UniProt P20273 20-847, limits assumed); assay: flow cytometry on Raji cells, antibody at several concentrations
T1 construct: whole, on cells; also called 天然细胞表面CD22蛋白
T1 sequence (looked up): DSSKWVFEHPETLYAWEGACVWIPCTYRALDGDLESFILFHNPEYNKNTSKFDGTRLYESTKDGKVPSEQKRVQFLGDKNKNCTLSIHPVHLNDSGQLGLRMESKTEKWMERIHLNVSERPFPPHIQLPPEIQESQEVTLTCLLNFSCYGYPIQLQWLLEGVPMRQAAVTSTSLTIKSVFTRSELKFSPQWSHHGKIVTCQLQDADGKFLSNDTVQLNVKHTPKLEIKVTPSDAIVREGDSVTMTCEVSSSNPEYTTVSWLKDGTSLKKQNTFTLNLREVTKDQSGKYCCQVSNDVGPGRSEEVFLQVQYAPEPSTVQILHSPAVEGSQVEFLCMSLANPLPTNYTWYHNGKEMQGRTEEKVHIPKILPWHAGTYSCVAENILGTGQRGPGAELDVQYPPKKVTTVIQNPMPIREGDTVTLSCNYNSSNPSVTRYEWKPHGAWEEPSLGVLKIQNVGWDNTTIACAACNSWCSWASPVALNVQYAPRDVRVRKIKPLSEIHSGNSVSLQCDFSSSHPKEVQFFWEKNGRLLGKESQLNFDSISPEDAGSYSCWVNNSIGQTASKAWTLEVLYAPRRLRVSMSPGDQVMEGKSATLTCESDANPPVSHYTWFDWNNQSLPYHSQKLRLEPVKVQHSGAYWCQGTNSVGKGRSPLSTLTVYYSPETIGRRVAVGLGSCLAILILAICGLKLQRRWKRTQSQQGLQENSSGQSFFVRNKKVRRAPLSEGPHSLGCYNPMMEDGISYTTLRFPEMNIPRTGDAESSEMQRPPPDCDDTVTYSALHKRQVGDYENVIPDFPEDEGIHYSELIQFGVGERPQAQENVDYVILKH

CD22 FC融合标签蛋白 [1] = biological target: CD22 FC融合标签蛋白 (UniProt P20273); assay: indirect ELISA, B cell clone supernatant on coated CD22 protein (1 μg/ml)
CD22 FC融合标签蛋白 [2] = biological target: CD22 FC融合标签蛋白 (UniProt P20273); assay: ELISA, purified antibody at dilution 25K on coated CD22 protein (1 μg/ml)
CD22 FC融合标签蛋白 [3] = biological target: CD22 FC融合标签蛋白 (UniProt P20273); assay: ELISA, purified antibody at dilution 125K on coated CD22 protein (1 μg/ml)
CD22 FC融合标签蛋白 [4] = biological target: CD22 FC融合标签蛋白 (UniProt P20273); assay: ELISA, purified antibody at dilution 625K on coated CD22 protein (1 μg/ml)
CD22 FC融合标签蛋白 [5] = biological target: CD22 FC融合标签蛋白 (UniProt P20273); assay: ELISA, purified antibody at dilution 3125k on coated CD22 protein (1 μg/ml)
CD22 FC融合标签蛋白 [6] = biological target: CD22 FC融合标签蛋白 (UniProt P20273); assay: ELISA, purified antibody at dilution 15625k on coated CD22 protein (1 μg/ml)
CD22 FC融合标签蛋白 [7] = biological target: CD22 FC融合标签蛋白 (UniProt P20273); assay: ELISA, purified antibody at dilution 1K on coated CD22 protein (1 μg/ml)

binding result (CD22 on Raji细胞): binds
OD450 (CD22 FC融合标签蛋白 [1]): 1.86
ELISA reading (OD) at dilution 25K (CD22 FC融合标签蛋白 [2]): 3.37
ELISA reading (OD) at dilution 125K (CD22 FC融合标签蛋白 [3]): 1.39
ELISA reading (OD) at dilution 625K (CD22 FC融合标签蛋白 [4]): 0.405
ELISA reading (OD) at dilution 3125k (CD22 FC融合标签蛋白 [5]): 0.171
ELISA reading (OD) at dilution 15625k (CD22 FC融合标签蛋白 [6]): 0.125
B1: 命名为10F9的兔重组单克隆抗体 (antibody, V domains shown)
VH: QSVEESGGRLVTPGTPLTLTCTVSGFSLNTDAMIWVRQAPGKGLEYIGIIGSSGSAFFASWAKGRFTISKTSTTVDLTIISPTTEDTATYFCARFTGYGGYGRGGMDPWGPGTLVTVSS
VL: AQVLTQTPSSVSAAVGGTVTINCQSSESVHNNNWLSWYQQKPGQPPKLLIYKASTLASGVPSRFSGSGSGTQFTLTISGVQCDDAATYYCQATYNSGGWYVAFGGGTEVVVK
notes: Rabbit recombinant monoclonal antibody expressed in 293 cells

binding result (CD22 on Raji细胞): binds
ELISA reading (OD) at dilution 1K (CD22 FC融合标签蛋白 [7]): 3.95
OD450 (CD22 FC融合标签蛋白 [1]): 2.12
ELISA reading (OD) at dilution 25K (CD22 FC融合标签蛋白 [2]): 3.1
ELISA reading (OD) at dilution 125K (CD22 FC融合标签蛋白 [3]): 1.33
ELISA reading (OD) at dilution 625K (CD22 FC融合标签蛋白 [4]): 0.382
ELISA reading (OD) at dilution 3125k (CD22 FC融合标签蛋白 [5]): 0.18
ELISA reading (OD) at dilution 15625k (CD22 FC融合标签蛋白 [6]): 0.12
B2: 命名为9A3的兔重组单克隆抗体 (antibody, V domains shown)
V domain 1: QSVEESGGRLVTPGTPLTLTCTVSGIDLSSYWMNWVRQAPGKGLEWIGIIWSDDNTYYANWAKGRFTISKTSSTTVDLTITSPTTEDTATYFCARGYVGDIWGPGTLITVS
V domain 2: ALVMTQTPSSVDVAVGGTVTIRCQASQNIYSGLAWYQQKPGQPPKLLIYGASNLASGVSSRFKGSGSGTQFTLTISGVECADAATYYCQQTYTSDNVDNPFGGGTEVVVE
notes: as for B1

binding result (CD22 on Raji细胞): binds
OD450 (CD22 FC融合标签蛋白 [1]): 1.93
ELISA reading (OD) at dilution 25K (CD22 FC融合标签蛋白 [2]): 3.52
ELISA reading (OD) at dilution 125K (CD22 FC融合标签蛋白 [3]): 1.92
ELISA reading (OD) at dilution 625K (CD22 FC融合标签蛋白 [4]): 0.528
ELISA reading (OD) at dilution 3125k (CD22 FC融合标签蛋白 [5]): 0.203
ELISA reading (OD) at dilution 15625k (CD22 FC融合标签蛋白 [6]): 0.146
B3: 命名为8B5的兔重组单克隆抗体 (antibody, V domains shown)
VH: QEQLKESGGGLVTPGGSLTLTCTVSGIDLSSYAMGWVRQAPGKGLEYIGIVTYAGSAYYASWARGRFTISKTSTTVDLKITSPTTEDTATYFCARGVDNFYTLPDAFDPWGPGTLVTVS
VL: AYDMTQTPASVSAAVGGTVTINCQASQSISRFLSWYQQKPGQRPKLLIYRASTLASGVSSRFEGSGSGTQFTLTISGVECADAATYYCQQGDTYINVDNPFGGGTEVVVK
notes: as for B1

— CN115433280A (SUZHOU DIMA BIOTECHNOLOGY CO LTD, dated 2022)
